Measured values: patent US20090208410A1, “ED-B FIBRONECTIN AS STRATIFICATION MARKER FOR ANTI-TUMOR DRUGS” (priority 2007, published 2009)

Tested on: NCI-H292 and Calu-6 tumor tissue
Assay: In vitro binding of biotinylated AP39 to frozen sections of tumor tissue (ExtrAvidin / DAB staining)
Design: species or system human
Conditions: frozen sections (5-10 μm); NCI-H292 (FIG. 1A) compared to Calu-6 (FIG. 1B)
Description: Binding studies were performed in two human NSCLC tumor models in mice: NCI-H292 which is an erlotinib-sensitive epithelial-type model, and Calu-6 which is an erlotinib-resistant mesenchymal-type model.
TCEP-reduced AP39 was biotinylated using 3-(N-maleimidopropionyl) biocytin (Sigma). The in vitro binding of biotinylated AP39 to frozen sections (5-10 μm) of NCI-H292 and Calu-6 tumor tissue was determined by utilizing ExtrAvidin (Sigma) and Liquid DAB Substrate Pack (BioGenex) according to the protocols of the manufacturers.

B1: biotinylated AP39: TCEP-reduced AP39 biotinylated using 3-(N-maleimidopropionyl) biocytin (conjugate)
scFv: EVQLLESGGGLVQPGGSLRLSCAASGFTFSSFSMSWVRQAPGKGLEWVSSISGSSGTTYYADSVKGRFTISRDNSKNTLYLQMNSLRAEDTAVYYCAKPFPYFDYWGQGTLVTVSSGDGSSGGSGGASTGEIVLTQSPGTLSLSPGERATLSCRASQSVSSSFLAWYQQKPGQAPRLLIYYASSRATGIPDRFSGSGSGTDFTLTISRLEPEDFAVYYCQQTGRIPPTFGQGTKVEIKGGGCA
binding to tumor tissue, NCI-H292 compared to Calu-6: more extensive binding
